Test results from patent US20230390340A1.

Target: ApoE dependent receptors (on bEND.3 mouse endothelial cells) (mouse)
Assay: cell-based or functional assay

In the case of “IDS.ApoEII (human iduronate-2-sulfatase with C-terminal invariant flexible linker and ApoE receptor-binding tandem repeat) (from UniProt P22304 26-550) (enzyme)”, the uptake of IDS.ApoEII into bEND.3 cells after 24 hours, following blocking with human recombinant ApoE is reported as 30%.
